Laboratory results from US20060234282A1 (NATIONAL RESEARCH COUNCIL OF CANADA, published 2006).

T1: rat galanin receptor-2 (GAL-R2) (rat, UniProt O08726 1-372)
T1 construct: Full 372 amino acid open reading frame expressed from pCDNA3/GALR-2 in HEK293 cells; cAMP assays used whole cells; also called rat GAL-R2; RGALR2.PRO
T1 sequence: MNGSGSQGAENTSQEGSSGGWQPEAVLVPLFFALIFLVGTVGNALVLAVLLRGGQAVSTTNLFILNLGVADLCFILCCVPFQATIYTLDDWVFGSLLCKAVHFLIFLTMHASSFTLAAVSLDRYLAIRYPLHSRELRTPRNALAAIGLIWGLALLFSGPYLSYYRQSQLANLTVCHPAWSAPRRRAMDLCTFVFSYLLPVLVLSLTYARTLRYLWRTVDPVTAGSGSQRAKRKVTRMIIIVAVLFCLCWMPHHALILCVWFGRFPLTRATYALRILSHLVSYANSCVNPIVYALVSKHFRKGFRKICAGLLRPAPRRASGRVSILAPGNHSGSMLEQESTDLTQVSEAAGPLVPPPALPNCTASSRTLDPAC


Target: T1, rat galanin receptor-2 (GAL-R2)
Assay: displacement of ^125I-galanin, membranes of HEK293 cells expressing rat GAL-R2
Procedure: Binding reactions proceeded for 20 min at room temperature and were stopped by filtration through Unifilters-96, GF/B filters (Canberra Packard), using the 96-well Filtermate 196 filtration system from Canberra Packard. Filters were washed 5 times with 0.5 ml of ice cold 20 mM HEPES pH 7.5. The filters were dried at 55° C. for one hour and then 100 μl of μScint-20 (Canberra Packard) was added per well. Filters were counted with the Topcount microplate counter from Canberra Packard.

Row | Ki | binding result | Molecule
1 | 8.3 nM | – | M40 (peptide)
2 | – | no binding | HSDAVFTDNYTRLRKQMAVKKYLNSILN (peptide, UniProt P01282 125-152, looked up, Galanin-unrelated control ligand) [vasoactive intestinal polypeptide]
3 | – | no binding | RPKPQQFFGLM (peptide, UniProt P20366 58-68, looked up, Galanin-unrelated control ligand) [substance P]
